According to US20110123544A1 (published 2011):

T1: recombinant human IL-12 (rhIL-12) (human, UniProt P29459 23-219; P29460 23-328)
T1 chain 1: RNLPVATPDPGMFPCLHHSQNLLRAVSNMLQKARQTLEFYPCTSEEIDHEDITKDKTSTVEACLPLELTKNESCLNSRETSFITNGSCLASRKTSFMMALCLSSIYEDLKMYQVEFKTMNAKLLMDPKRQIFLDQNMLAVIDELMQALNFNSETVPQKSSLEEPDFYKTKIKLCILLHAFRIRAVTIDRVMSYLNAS
T1 chain 2: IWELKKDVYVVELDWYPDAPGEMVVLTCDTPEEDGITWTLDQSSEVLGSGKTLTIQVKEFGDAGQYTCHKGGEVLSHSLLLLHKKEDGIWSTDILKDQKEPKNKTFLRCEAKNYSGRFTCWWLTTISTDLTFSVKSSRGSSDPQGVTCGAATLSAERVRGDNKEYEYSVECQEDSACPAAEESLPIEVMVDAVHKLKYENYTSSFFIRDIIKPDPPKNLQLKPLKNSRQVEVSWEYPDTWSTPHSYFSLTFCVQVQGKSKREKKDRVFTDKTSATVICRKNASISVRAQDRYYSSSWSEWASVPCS

T2: recombinant human interleukin 12 (p40/p35 heterodimer) (human, UniProt P29460 23-328; P29459 23-219)
T2 chain 1: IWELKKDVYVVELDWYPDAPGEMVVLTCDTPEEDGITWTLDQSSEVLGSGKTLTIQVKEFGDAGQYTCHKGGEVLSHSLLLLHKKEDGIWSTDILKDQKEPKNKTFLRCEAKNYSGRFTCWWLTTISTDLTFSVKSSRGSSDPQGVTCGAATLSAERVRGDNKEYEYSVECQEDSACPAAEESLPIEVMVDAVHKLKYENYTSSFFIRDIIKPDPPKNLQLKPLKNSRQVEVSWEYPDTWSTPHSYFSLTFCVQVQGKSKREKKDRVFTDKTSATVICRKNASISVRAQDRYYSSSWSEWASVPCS
T2 chain 2: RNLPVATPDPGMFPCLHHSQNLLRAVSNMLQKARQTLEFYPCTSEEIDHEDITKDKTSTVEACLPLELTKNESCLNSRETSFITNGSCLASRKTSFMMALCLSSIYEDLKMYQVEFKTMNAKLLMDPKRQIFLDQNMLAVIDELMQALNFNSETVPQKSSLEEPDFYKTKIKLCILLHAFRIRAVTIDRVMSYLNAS


Target: T1, recombinant human IL-12 (rhIL-12)
Assay: BIAcore

Question: With SGGRSNIGSKTVK [Y61 L31 K] as the binder, how does the koff read?
Answer: Its koff is 0.000331 s⁻¹.

Question: With SGGRSNIGSNHVK [Y61 L32 H] as the binder, how does the koff read?
Answer: Its koff is 0.00026 s⁻¹.

Question: SGGRSNIGSNIVK [Y61 L32 I] was tested. Which koff did it give?
Answer: Its koff is 0.00154 s⁻¹.

Question: For SGGRSNIGSTTVK [Y61 L31 T], which koff is on record?
Answer: Its koff is 0.000309 s⁻¹.

Question: For SGGRSNIGSETVK [Y61 L31 E], which koff is on record?
Answer: The koff was 0.000384 s⁻¹.

Question: With SGGRSNIGSNDVK [Y61 L32 D] as the binder, how does the koff read?
Answer: The koff was 0.000252 s⁻¹.

Question: Which koff does the source give for SGGRSNIGSQTVK [Y61 L31 Q] here?
Answer: Its koff is 0.000292 s⁻¹.

Question: For SGGRSNIGSSTVK [Y61 L31 S], which koff is on record?
Answer: The koff was 0.000392 s⁻¹.

Target: T2, recombinant human interleukin 12 …
Assay: BIAcore

Question: Which koff does the source give for FIRYDGSTKYYADSVKG [Y61 H56 T] here?
Answer: The koff was 0.000235 s⁻¹.

Question: How did the koff turn out when FIRYDFSNKYYADSVKG [Y61 H54 F] was run?
Answer: The koff was 0.000663 s⁻¹.

Question: For FIRYDGSNKIYADSVKG [Y61 H58 I], which koff is on record?
Answer: Its koff is 0.000657 s⁻¹.

Question: With FIRYDGSNKEYADSVKG [Y61 H58 E] as the binder, how does the koff read?
Answer: The koff was 0.000415 s⁻¹.

Question: How did the koff turn out when FIRYDGSNKSYADSVKG [Y61 H58 S] was run?
Answer: Its koff is 0.000941 s⁻¹.

Question: How did the koff turn out when FIRYDGSNKPYADSVKG [Y61 H58 P] was run?
Answer: Its koff is 0.000628 s⁻¹.

Question: Which koff does the source give for FIRYDGSNKVYADSVKG [Y61 H58 V] here?
Answer: Its koff is 0.000524 s⁻¹.

Question: For FIRYDGSHKYYADSVKG [Y61 H56 H], which koff is on record?
Answer: The koff was 0.00042 s⁻¹.

Question: Which koff does the source give for FIRYDGSLKYYADSVKG [Y61 H56 L] here?
Answer: The koff was 0.000264 s⁻¹.

Question: How did the koff turn out when FIRYDGSYKYYADSVKG [Y61 H56 Y] was run?
Answer: The koff was 0.00039 s⁻¹.

Question: How did the koff turn out when FIRYDGSGKYYADSVKG [Y61 H56 G] was run?
Answer: Its koff is 0.000272 s⁻¹.

Question: How did the koff turn out when FIRYDGSIKYYADSVKG [Y61 H56 I] was run?
Answer: Its koff is 0.000169 s⁻¹.

Question: FIRYDGSPKYYADSVKG [Y61 H56 P] was tested. Which koff did it give?
Answer: Its koff is 0.000299 s⁻¹.

Question: Which koff does the source give for FIRYDGSMKYYADSVKG [Y61 H56 M] here?
Answer: The koff was 0.000383 s⁻¹.

Question: Which koff does the source give for FIRYDGSSKYYADSVKG [Y61 H56 S] here?
Answer: The koff was 0.000624 s⁻¹.

Question: Which koff does the source give for FIRYDGSNKFYADSVKG [Y61 H58 F] here?
Answer: Its koff is 0.000794 s⁻¹.

Question: For FIRYDGSNKNYADSVKG [Y61 H58 N], which koff is on record?
Answer: The koff was 0.000831 s⁻¹.

Question: With FIRYDGSNKLYADSVKG [Y61 H58 L] as the binder, how does the koff read?
Answer: Its koff is 0.00073 s⁻¹.

Question: FIRYDGSFKYYADSVKG [Y61 H56 F] was tested. Which koff did it give?
Answer: The koff was 0.000345 s⁻¹.

Target: T1, recombinant human IL-12 (rhIL-12)
Assay: BIAcore
Remark: another data set of the same source

Question: HGSHAN [Y61 H101 A] was tested. Which koff did it give?
Answer: Its koff is 0.00106 s⁻¹.

Question: With HGSHVN [Y61 H101 V] as the binder, how does the koff read?
Answer: Its koff is 0.00163 s⁻¹.

Question: With HGSHNN [Y61 H101 N] as the binder, how does the koff read?
Answer: Its koff is 0.00223 s⁻¹.

Question: With HGSHDG [Y61 H102 G] as the binder, how does the koff read?
Answer: Its koff is 0.000692 s⁻¹.

Question: How did the koff turn out when HGSHDK [Y61 H102 K] was run?
Answer: Its koff is 0.000405 s⁻¹.

Question: HGSHDS [Y61 H102 S] was tested. Which koff did it give?
Answer: Its koff is 0.000325 s⁻¹.

Question: How did the koff turn out when HGSHDP [Y61 H102 P] was run?
Answer: Its koff is 0.00181 s⁻¹.

Question: HGSHDH [Y61 H102 H] was tested. Which koff did it give?
Answer: Its koff is 0.00018 s⁻¹.

Question: For HGSHGN [Y61 H101 G], which koff is on record?
Answer: Its koff is 0.00375 s⁻¹.

Question: With HGSHIN [Y61 H101 I] as the binder, how does the koff read?
Answer: Its koff is 0.00162 s⁻¹.

Question: For HGSHDL [Y61 H102 L], which koff is on record?
Answer: Its koff is 0.000956 s⁻¹.

Question: For HGSHDW [Y61 H102 W], which koff is on record?
Answer: The koff was 0.000235 s⁻¹.

Question: For HGSHDR [Y61 H102 R], which koff is on record?
Answer: The koff was 0.000575 s⁻¹.

Question: For HGSHDT [Y61 H102 T], which koff is on record?
Answer: Its koff is 0.000333 s⁻¹.

Question: With HGSHDF [Y61 H102 F] as the binder, how does the koff read?
Answer: The koff was 0.000318 s⁻¹.

Question: HGSHDA [Y61 H102 A] was tested. Which koff did it give?
Answer: The koff was 0.000382 s⁻¹.

Question: Which koff does the source give for HGSHDI [Y61 H102 I] here?
Answer: Its koff is 0.000996 s⁻¹.

Target: T1, recombinant human IL-12 (rhIL-12)
Assay: BIAcore
Remark: another data set of the same source

Question: Which koff does the source give for WNDQRPS [Y61 L50 W] here?
Answer: The koff was 0.000382 s⁻¹.

Question: QNDQRPS [Y61 L50 Q] was tested. Which koff did it give?
Answer: Its koff is 0.000348 s⁻¹.

Question: With ANDQRPS [Y61 L50 A] as the binder, how does the koff read?
Answer: Its koff is 0.000372 s⁻¹.

Question: Which koff does the source give for HNDQRPS [Y61 L50 H] here?
Answer: The koff was 0.000761 s⁻¹.

Question: MNDQRPS [Y61 L50 M] was tested. Which koff did it give?
Answer: The koff was 0.000953 s⁻¹.

Question: TNDQRPS [Y61 L50 T] was tested. Which koff did it give?
Answer: Its koff is 0.000272 s⁻¹.

Question: PNDQRPS [Y61 L50 P] was tested. Which koff did it give?
Answer: Its koff is 0.00041 s⁻¹.

Question: With DNDQRPS [Y61 L50 D] as the binder, how does the koff read?
Answer: The koff was 0.000348 s⁻¹.

Question: For GNDTRPS [Y61 L53 T], which koff is on record?
Answer: The koff was 0.000834 s⁻¹.

Question: For GNDPRPS [Y61 L53 P], which koff is on record?
Answer: Its koff is 0.000974 s⁻¹.

Question: Which koff does the source give for INDQRPS [Y61 L50 I] here?
Answer: The koff was 0.0012 s⁻¹.

Question: For SNDQRPS [Y61 L50 S], which koff is on record?
Answer: Its koff is 0.000286 s⁻¹.

Question: With GNDRRPS [Y61 L53 R] as the binder, how does the koff read?
Answer: The koff was 0.000614 s⁻¹.

Question: For GNDIRPS [Y61 L53 I], which koff is on record?
Answer: The koff was 0.000855 s⁻¹.

Question: GNDYRPS [Y61 L53 Y] was tested. Which koff did it give?
Answer: Its koff is 0.000733 s⁻¹.

Question: ENDQRPS [Y61 L50 E] was tested. Which koff did it give?
Answer: Its koff is 0.000617 s⁻¹.

Question: For CNDQRPS [Y61 L50 C], which koff is on record?
Answer: Its koff is 0.000467 s⁻¹.

Question: KNDQRPS [Y61 L50 K] was tested. Which koff did it give?
Answer: Its koff is 0.00243 s⁻¹.

Question: Which koff does the source give for GNDARPS [Y61 L53 A] here?
Answer: The koff was 0.000554 s⁻¹.

Question: Which koff does the source give for LNDQRPS [Y61 L50 L] here?
Answer: The koff was 0.000616 s⁻¹.

Question: For VNDQRPS [Y61 L50 V], which koff is on record?
Answer: The koff was 0.000385 s⁻¹.

Question: For FNDQRPS [Y61 L50 F], which koff is on record?
Answer: Its koff is 0.0348 s⁻¹.

Question: Which koff does the source give for NNDQRPS [Y61 L50 N] here?
Answer: Its koff is 0.000305 s⁻¹.

Question: RNDQRPS [Y61 L50 R] was tested. Which koff did it give?
Answer: The koff was 0.000444 s⁻¹.

Question: For GNDSRPS [Y61 L53 S], which koff is on record?
Answer: Its koff is 0.000866 s⁻¹.
